Test results: patent US20220119534A1 (DRAGONFLY THERAPEUTICS, published 2022)
Numbering of substitutions follows the chain as printed. Where “and” joins values, the source holds several entries; their conditions need not be identical. Equal values may be shown once. Each block holds one binder with its values, some of them ahead of it.

Key:
[1] = target: T1, human NKG2D on effector cells (human, UniProt P26718 1-216); assay: cell-based or functional assay
T1 sequence (looked up): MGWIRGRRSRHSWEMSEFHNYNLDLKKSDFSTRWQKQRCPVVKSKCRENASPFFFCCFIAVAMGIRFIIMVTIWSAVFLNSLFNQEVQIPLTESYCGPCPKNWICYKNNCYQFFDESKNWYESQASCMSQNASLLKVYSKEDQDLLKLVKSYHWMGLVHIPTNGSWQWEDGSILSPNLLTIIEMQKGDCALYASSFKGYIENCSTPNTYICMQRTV

[2] = target: T2, Human CLEC12A expressed on cells (Ba/F3-hCLEC12A, PL21, HL60) (human, UniProt Q5QGZ9 1-265); assay: cell-based or functional assay
T2 sequence: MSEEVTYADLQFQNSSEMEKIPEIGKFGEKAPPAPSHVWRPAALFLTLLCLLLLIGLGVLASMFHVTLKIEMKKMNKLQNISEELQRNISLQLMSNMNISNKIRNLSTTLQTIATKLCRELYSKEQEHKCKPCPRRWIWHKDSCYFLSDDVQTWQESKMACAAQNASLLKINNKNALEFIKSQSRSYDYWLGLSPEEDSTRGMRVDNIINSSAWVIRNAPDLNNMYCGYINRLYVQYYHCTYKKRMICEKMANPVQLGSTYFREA

[3] = target: T2, Human CLEC12A expressed on cells …; assay: cell-based or functional assay; remark: listed apart in the source
[4] = target: T2, Human CLEC12A expressed on cells …; assay: cell-based or functional assay; remark: listed apart in the source
[5] = target: T3, human CLEC12A expressed on cells (human, UniProt Q5QGZ9 1-265); assay: flow cytometry on PL-21 cells, fold over background
T3 construct: Transduced isogenic cells or endogenous expression on AML cells; also called RMA-hCLEC12A; Ba/F3-hCLEC12A
T3 sequence: T2 sequence
Description: The cells were then incubated with a fluorophore conjugated anti-human IgG secondary antibody and were analyzed by flow cytometry. The mean fluorescence intensity (MFI) values were normalized to secondary antibody only controls to obtain fold over background (FOB) values.
100,000 cells were seeded per well into a 96-well plate for FACS staining. Cells were washed with PBS. Cells were incubated in a 1:2000 dilution of live/dead dye in PBS for 15 minutes, then washed with FACS buffer. TriNKETs or mAbs were diluted into FACS buffer, and 50 μl containing diluted TriNKET or mAb was added to cells. Cells were incubated on ice for 20 minutes. After the incubation, cells were washed with FACS buffer. Anti-human IgG-Fc secondary antibody was diluted into FACS buffer, and 50 μl was added per well for detection of the bound TriNKETs or mAbs. Cells were incubated for 20 minutes on ice, then washed with FACS buffer. 50 μl of fixation buffer was added to each well, and cells were incubated for 10 minutes at room temperature. […] Within the live gate, the mean fluorescence intensity (MFI) of each sample and the secondary-only control was calculated. Fold-over-background (FOB) was calculated as the ratio of test article MFI over secondary-only background MFI. […]

[6] = target: T4, recombinant human CLEC12A-His (human, UniProt Q5QGZ9 65-265); assay: SPR 37C, average
T4 construct: also called hCLEC12A-His; hCLEC12A
T4 sequence: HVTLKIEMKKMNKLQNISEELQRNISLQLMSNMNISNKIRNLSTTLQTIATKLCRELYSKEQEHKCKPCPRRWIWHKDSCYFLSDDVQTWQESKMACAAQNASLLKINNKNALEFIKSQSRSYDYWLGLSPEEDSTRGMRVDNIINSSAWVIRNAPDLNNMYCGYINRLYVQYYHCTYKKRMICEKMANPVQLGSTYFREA

[7] = target: T3, human CLEC12A expressed on cells; assay: flow cytometry, HL60
[8] = target: T4, recombinant human CLEC12A-His; assay: SPR 37C
[9] = target: T3, human CLEC12A expressed on cells; assay: flow cytometry, hCLEC12A+ Ba/F3

EC50 nM, KHYG-1-CD16aV-mediated lysis of HL-60 [1]: 2.5 nM
B1: AB0237-Dead-2D (other)
chain: QLQLQESGPGLVKPSETLSLTCTVSGFSLTNYGLHWIRQPPGKCLEWIGVIWSGGKTDYNPSLKSRVTISKDTSKNQFSLKLSSVQAADTAVYYCAKYDYDDSLDYWGQGTLVTVSSGGGGSGGGGSGGGGSGGGGSDIQMTQSPSSLSASVGDRVTITCHASQNINFWLSWYQQKPGKAPKLLIYEASNLHTGVPSRFSGSGSGTRFTLTISSLQPEDIATYYCQQSHSYPLTFGCGTKLEIKGSDKTHTCPPCPAPELLGGPSVFLFPPKPKDTLMISRTPEVTCVVVDVSHEDPEVKFNWYVDGVEVHNAKTKPREEQYNSTYRVVSVLTVLHQDWLNGKEYKCKVSNKALPAPIEKTISKAKGQPREPRVYTLPPCRDELTKNQVSLTCLVKGFYPSDIAVEWESNGQPENNYKTTPPVLVSDGSFTLYSKLTVDKSRWQQGNVFSCSVMHEALHNHYTQKSLSLSPG
heavy: EVQLVESGGGLVKPGGSLRLSCAASGFTFSSYSMNWVRQAPGKGLEWVSSISSSSSYIYYADSVKGRFTISRDNAKNSLYLQMNSLRAEDTAVYYCARGAPIGAAAGWFDPWGQGTLVTVSSASTKGPSVFPLAPSSKSTSGGTAALGCLVKDYFPEPVTVSWNSGALTSGVHTFPAVLQSSGLYSLSSVVTVPSSSLGTQTYICNVNHKPSNTKVDKKVEPKSCDKTHTCPPCPAPELLGGPSVFLFPPKPKDTLMISRTPEVTCVVVDVSHEDPEVKFNWYVDGVEVHNAKTKPREEQYNSTYRVVSVLTVLHQDWLNGKEYKCKVSNKALPAPIEKTISKAKGQPREPQVCTLPPSRDELTENQVSLTCLVKGFYPSDIAVEWESNGQPENNYKTTPPVLDSDGSFFLYSWLTVDKSRWQQGNVFSCSVMHEALHNHYTQKSLSLSPG
light: DIQMTQSPSTLSASVGDRVTITCRASNSISSWLAWYQQKPGKAPKLLIYEASSTKSGVPSRFSGSGSGTEFTLTISSLQPDDFATYYCQQYDDLPTFGGGTKVEIKRTVAAPSVFIFPPSDEQLKSGTASVVCLLNNFYPREAKVQWKVDNALQSGNSQESVTEQDSKDSTYSLSSTLTLSKADYEKHKVYACEVTHQGLSSPVTKSFNRGEC

EC50, rested NK cell lysis of PL21 cells (mean of six donors) [2]: 0.61 nM | % Max, ADCP activity of M0 macrophages against PL21 cells [3]: 15% | EC50, ADCP activity of M0 macrophages against PL21 cells [3]: 0.03 nM | EC50, rested NK cells lysis of HL60 cells (mean of four donors) [4]: 0.3 nM
B2: AB0192 TriNKET (bispecific antibody, human IgG1, kappa)
chain: EVQLVESGGGVVQPGGSLRLSCAASGFTFNAFGMHWVRQAPGKCLEWVAFISSGSTSIYYANTVKGRFTISRDNSKNTLYLQMNSLRAEDTAVYYCARDGYPTGGAMDYWGQGTSVTVSSGGGGSGGGGSGGGGSGGGGSDIQMTQSPSSLSASVGDRVTITCKASQDIYNYLSWFQQKPGKAPKPLIYRANILVSGVPSRFSGSGSGQDYTFTISSLQPEDIATYYCLQFDAFPFTFGCGTKLEIKGSDKTHTCPPCPAPELLGGPSVFLFPPKPKDTLMISRTPEVTCVVVDVSHEDPEVKFNWYVDGVEVHNAKTKPREEQYNSTYRVVSVLTVLHQDWLNGKEYKCKVSNKALPAPIEKTISKAKGQPREPRVYTLPPCRDELTKNQVSLTCLVKGFYPSDIAVEWESNGQPENNYKTTPPVLVSDGSFTLYSKLTVDKSRWQQGNVFSCSVMHEALHNHYTQKSLSLSPG
heavy: B1 heavy
light: DIQMTQSPSSVSASVGDRVTITCRASQGISSWLAWYQQKPGKAPKLLIYAASSLQSGVPSRFSGSGSGTDFTLTISSLQPEDFATYYCQQGVSFPRTFGGGTKVEIKRTVAAPSVFIFPPSDEQLKSGTASVVCLLNNFYPREAKVQWKVDNALQSGNSQESVTEQDSKDSTYSLSSTLTLSKADYEKHKVYACEVTHQGLSSPVTKSFNRGEC

EC50 (read off the curve) [5]: ~2 nM
B3: AB0300 (other, name in EU numbering)
chain: B1 chain with L260A, L261A, P355G
heavy: B1 heavy with L239A, L240A, P334G
light: B2 light
notes: AB0237 with LALAPG in both Fc chains

Kd [6]: 0.74 nM | koff [6]: 0.000525 s⁻¹ | kon [6]: 710000 M⁻¹ s⁻¹ | EC50 [7]: 4.2 nM | Kd [8]: 0.71 nM and 0.77 nM | koff [8]: 0.000508 s⁻¹ and 0.000541 s⁻¹ | kon [8]: 715000 M⁻¹ s⁻¹ and 704000 M⁻¹ s⁻¹ | EC50 [9]: 6.13 nM
B4: AB0010 (other)
chain: DIQMTQSPSSVSASVGDRVTITCRASQGISSWLAWYQQKPGKAPKLLIYAASSLQSGVPSRFSGSGSGTDFTLTISSLQPEDFATYYCQQGVSFPRTFGGGTKVEIKGGGGSGGGGSGGGGSGGGGSEVQLVESGGGLVKPGGSLRLSCAASGFTFSSYSMNWVRQAPGKGLEWVSSISSSSSYIYYADSVKGRFTISRDNAKNSLYLQMNSLRAEDTAVYYCARGAPIGAAAGWFDPWGQGTLVTVSSGSDKTHTCPPCPAPELLGGPSVFLFPPKPKDTLMISRTPEVTCVVVDVSHEDPEVKFNWYVDGVEVHNAKTKPREEQYNSTYRVVSVLTVLHQDWLNGKEYKCKVSNKALPAPIEKTISKAKGQPREPRVYTLPPCRDELTKNQVSLTCLVKGFYPSDIAVEWESNGQPENNYKTTPPVLVSDGSFTLYSKLTVDKSRWQQGNVFSCSVMHEALHNHYTQKSLSLSPG
heavy: QLQLQESGPGLVKPSETLSLTCTVSGFSLTNYGLHWIRQPPGKGLEWIGVIWSGGKTDYNPSLKSRVTISKDTSKNQFSLKLSSVQAADTAVYYCAKYDYDDSLDYWGQGTLVTVSSASTKGPSVFPLAPSSKSTSGGTAALGCLVKDYFPEPVTVSWNSGALTSGVHTFPAVLQSSGLYSLSSVVTVPSSSLGTQTYICNVNHKPSNTKVDKKVEPKSCDKTHTCPPCPAPELLGGPSVFLFPPKPKDTLMISRTPEVTCVVVDVSHEDPEVKFNWYVDGVEVHNAKTKPREEQYNSTYRVVSVLTVLHQDWLNGKEYKCKVSNKALPAPIEKTISKAKGQPREPQVCTLPPSRDELTENQVSLTCLVKGFYPSDIAVEWESNGQPENNYKTTPPVLDSDGSFFLYSWLTVDKSRWQQGNVFSCSVMHEALHNHYTQKSLSLSPG
light: DIQMTQSPSSLSASVGDRVTITCHASQNINFWLSWYQQKPGKAPKLLIYEASNLHTGVPSRFSGSGSGTRFTLTISSLQPEDIATYYCQQSHSYPLTFGGGTKLEIKRTVAAPSVFIFPPSDEQLKSGTASVVCLLNNFYPREAKVQWKVDNALQSGNSQESVTEQDSKDSTYSLSSTLTLSKADYEKHKVYACEVTHQGLSSPVTKSFNRGEC
notes: NKG2D scFv-Fc, CLEC12A Fab-Fc
